Measurements taken from doi:10.1101/776187.

Experiments:
[1] = biological target: human cytoplasmic dynein (recombinant complex of DHC, DIC, DLIC, Tctex, Robl and LC8) (human) (UniProt Q14204)
[2] = biological target: dynactin (bovine (purified from bovine brain))

- processive run length of DDB^F684I on microtubules, single molecule TIRF [1]: 3.3 µm
- speed of DDB^F684I on microtubules, single molecule TIRF [1]: 0.43 µm/s
- processive run length of DDB^F684I on microtubules, single molecule TIRF [2]: 3.3 µm
- speed of DDB^F684I on microtubules, single molecule TIRF [2]: 0.43 µm/s
B1: full-length Drosophila Bicaudal D F684I mutant (Dm BicD/F684I) (natural protein)
chain: MSSASNNGPSADQSVQDLQMEVERLTRELDQVSSASAQSAQYGLSLLEEKSALQQKCEELETLYDNTRHELDITQEALTKFQTSQKVTNKTGIEQEDALLNESAARETSLNLQIFDLENELKQLRHELERVRNERDRMLQENSDFGRDKSDSEADRLRLKSELKDLKFRETRMLSEYSELEEENISLQKQVSSLRSSQVEFEGAKHEIRRLTEEVELLNQQVDELANLKKIAEKQMEEALETLQGEREAKYALKKELDGHLNRESMYHISNLAYSIRSNMEDNASNNSDGEEENLALKRLEADLSTELKSPDGTKCDLFSEIHLNELKKLEKQLESMESEKTHLTANLREAQTSLDKSQNELQNFMSRLALLAAHVDALVQLKKQIDVKEQGKEGGQKKDELEQQLRALISQYANWFTLSAKEIDGLKTDIAELQKGLNYTDATTTLRNEVTNLKNKLLATEQKSLDLQSDVQTLTHISQNAGQSLGSARSTLVALSDDLAQLYHLVCTVNGETPTRVLLDHKTDDMSFENDSLTAIQSQFKSDVFIAKPQIVEDLQGLADSVEIKKYVDTVSDQIKYLKTAVEHTIDMNKHKIRSEGGDALEKVNTEEMEELQEQIVKLKSLLSVKREQIGTLRNVLKSNKQTAEVALTNLKSKYENEKIIVSDTMSKLRNELRLLKEDAATISSLRAMFAARCEEYVTQVDDLNRQLEAAEEEKKTLNQLLRLAVQQKLALTQRLEEMEMDREMRHVRRPMPAQRGTSGKSSFSTRPSSRNPASSNANPF
